Measured values published in article PMC1277823, “nfi-1 affects behavior and life-span in C. elegans but is not essential for DNA replication or survival”.

Target: hNFI-C220-H6 (human, UniProt P08651 1-220)
Assay: EMSA; ~5 ng protein; EMSA on 6.5% non-denaturing polyacrylamide gel (Fig. 2A); buffer, salt, pH and temperature not given (as in cited refs 38, 54)
Details: protein: recombinant; tags: 6xHis; chain copies: 2

Chain of hNFI-C220-H6 (P08651 1-220): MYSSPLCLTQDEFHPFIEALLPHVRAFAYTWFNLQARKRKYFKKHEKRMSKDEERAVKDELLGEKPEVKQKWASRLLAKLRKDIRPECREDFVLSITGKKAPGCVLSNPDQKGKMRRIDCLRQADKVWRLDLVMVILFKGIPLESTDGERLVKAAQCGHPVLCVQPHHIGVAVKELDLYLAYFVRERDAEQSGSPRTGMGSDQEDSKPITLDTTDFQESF

B1: 2.6 (dsDNA)
DNA 1: AGGTCTGGCTTTGGGCCAAGAGCCGC
DNA 2: GCGGCTCTTGGCCCAAAGCCAGACCT
binding result: binds

B2: C2 (dsDNA)
DNA 1: AGGTCTCGCTTTGGGCCAAGAGCCGC
DNA 2: GCGGCTCTTGGCCCAAAGCGAGACCT
binding result: no binding
